According to the supplement of paper PMC9170038:

System: MS2 coat protein
Assay: apparent KD of MS2 coat protein; designed switch direction (-1 OFF switch, 1 ON switch): 1; higher = weaker reporter binding
Method in brief: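 Three titration conditions were used: no input, 200 uM small-molecule ligand, and an oligonucleotide input. In each, SNAP-549-labelled MS2 coat protein was raised from 0.7 or 1.5 nM, doubling, to 3 µM over designed RNA switches transcribed on Illumina chips by stalled E. coli RNA polymerase. Curve fits of normalised cluster fluorescence gave values whose per-design median over clusters is the apparent KD.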

[1] = input ligand: microRNA oligo, concentration not stated
[2] = Eterna round: R95, input ligand: FMN 200 uM
[3] = Eterna round: R95, input ligand: microRNA oligo, concentration not stated
[4] = Eterna round: R95, input ligand: none

Sequence | apparent KD of MS2 coat protein (input ligand: FMN 200 uM) [µM] | apparent KD of MS2 coat protein [1] [µM] | apparent KD of MS2 coat protein (input ligand: none) [µM] | apparent KD of MS2 coat protein [2] [µM] | apparent KD of MS2 coat protein [3] [µM] | apparent KD of MS2 coat protein [4] [µM]
CGUCGUUUGGUAGGAUAUCGCUAUACAUGAGGAUCACCCAUGUUUACCACGCUGGUUUUUCAUACCGAGAAGGAUUCUGAUGUU [salish99_SSNG02_r04_017] (Eterna round: R96, puzzle: Same State NG 2) | 0.016 | 0.0149 | 0.0198 |  |  | 
AGAUCUCCUCUAGGAUAUCCCUAACAUGAGGAUCACCCAUGUCCGAAUUGCAGACAUAGGCCGAGGGAGAAGGAGAAACCGUCG [Eternabot solution 41] (Eterna round: R96, puzzle: Same State NG 2) | 0.742 | 0.576 | 0.856 |  |  | 
AGUAGUUUAACAUGAGGAUCACCCAUGUAUCUAUCUGUAACCUAGGAUAUGGACGUUGUAUUUAACCAGAAGGAGGAUCGUUUA [JR_SSNG3_Sub046] (Eterna round: R96, puzzle: Same State NG 3) |  | 0.0227 |  |  |  | 
GUGCUCGUGUGAGGAUAUGCUUCCGUUUCGGCUGCAGAAGGUACUAUUAUACAUGAGGAUCACCCAUGUCUCUUUUCUUCGGUG [salish99_SSNG1_r04_912] (Eterna round: R96, puzzle: Same State NG 1) |  | 0.0228 |  |  |  | 
GCUAGAAUUAACGCCUACAUGAGGAUCACCCAUGUAUGUAGGCAGGAUAUCGUUUGCUUUGCAAACGAGAAGGGCCUUACUAGC [JL SSNG3 1.11] (Eterna round: R96, puzzle: Same State NG 3) | 0.0223 | 0.0533 | 0.042 |  |  | 
GCGGCGGCACGGCAGGAUAUGAUAUAACCUACAUGAGGAUCACCCAUGUCGGCGGGUUGCAAAAUUCAGAAGGGCCCUGUAGGCC [Inberere] (puzzle: Same State 2) |  |  |  | 0.0218 | 0.0344 | 0.0372
AAGUAACAUGAGGAUCACCCAUGUGAGGUGAGCGUAGGAUAUCGAGAAGGAAGGGUGGAGCGAGAAGGACGAGGGA [JR_SS1_Sub0101] (puzzle: Same State 1) |  |  |  | 0.565 | 0.463 | 0.389
ACCCAAAGUAUAUGGGAGCAAGCUUUUUAACAUGAGGAUCACCCAUGUACUCGUCUUAUAAGCAGUCGAAAGACUGC [Sensor 100 - 4] (puzzle: Sensor for hsa-mir-208a) |  |  |  | 0.612 | 0.0124 | 0.814
AGCUAGUACCGAGGAUAUACGUACAUGAGGAUCACCCAUGUAUACAUGAAAUAAUGAGACUACAUGUAGAAGGCGGUACUAGCA [Mat - Same State NG 2 - JL mod - D50] (Eterna round: R96, puzzle: Same State NG 2) | 0.0142 | 0.0335 | 0.0487 |  |  | 
CACGUCCAGGUAGGAUAUGAGGUGCCAUAGGGAACAGCCUAUGGACAUGAGGAUCACCCAUGUCCUCAGAAGGGCCAGACGUGA [Rasote] (Eterna round: R96, puzzle: Same State NG 2) | 0.0257 | 0.116 | 0.171 |  |  | 
GAUUAACAUGAGGAUCACCCAUGUGUGAAUAUGGGAGGAUAUACGUGGACCGUAGUCCGCGUAGAAGGCCUAAUUG [JL-ss1-3.20 janelle mod] (puzzle: Same State 1) |  |  |  |  | 0.223 | 
GCUCGGAUGAUGGCCCACAUGAGGAUCACCCAUGUGCGUGGGCAGGAUAUCUAGAUUAAGGAUGUAGAGAAGGGUCUACCGAGC [SameState NG3 #32] (Eterna round: R96, puzzle: Same State NG 3) | 0.194 | 0.0679 | 0.128 |  |  | 
AUUAAACAUGAGGAUCACCCAUGUAAUAUUAUGGGAGGAUAUGCGAAUUUAAUUAAUUAAGCAGAAGGCCUAAUUA [Mat - Same State 1 - D101] (puzzle: Same State 1) |  |  |  |  | 0.106 | 
